The text below walks through data of IntAct's records for PubMed 20723758.

The labels stand for the following.
B1: Epidermal growth factor receptor (Drosophila melanogaster (Fruit fly)), P04412 (parent)
chain: MLLRRRNGPCPFPLLLLLLAHCICIWPASAARDRYARQNNRQRHQDIDRDRDRDRFLYRSSSAQNRQRGGANFALGLGANGVTIPTSLEDKNKNEFVKGKICIGTKSRLSVPSNKEHHYRNLRDRYTNCTYVDGNLKLTWLPNENLDLSFLDNIREVTGYILISHVDVKKVVFPKLQIIRGRTLFSLSVEEEKYALFVTYSKMYTLEIPDLRDVLNGQVGFHNNYNLCHMRTIQWSEIVSNGTDAYYNYDFTAPERECPKCHESCTHGCWGEGPKNCQKFSKLTCSPQCAGGRCYGPKPRECCHLFCAGGCTGPTQKDCIACKNFFDEAVSKEECPPMRKYNPTTYVLETNPEGKYAYGATCVKECPGHLLRDNGACVRSCPQDKMDKGGECVPCNGPCPKTCPGVTVLHAGNIDSFRNCTVIDGNIRILDQTFSGFQDVYANYTMGPRYIPLDPERREVFSTVKEITGYLNIEGTHPQFRNLSYFRNLETIHGRQLMESMFAALAIVKSSLYSLEMRNLKQISSGSVVIQHNRDLCYVSNIRWPAIQKEPEQKVWVNENLRADLCEKNGTICSDQCNEDGCWGAGTDQCLTCKNFNFNGTCIADCGYISNAYKFDNRTCKICHPECRTCNGAGADHCQECVHVRDGQHCVSECPKNKYNDRGVCRECHATCDGCTGPKDTIGIGACTTCNLAIINNDATVKRCLLKDDKCPDGYFWEYVHPQEQGSLKPLAGRAVCRKCHPLCELCTNYGYHEQVCSKCTHYKRREQCETECPADHYTDEEQRECFQRHPECNGCTGPGADDCKSCRNFKLFDANETGPYVNSTMFNCTSKCPLEMRHVNYQYTAIGPYCAASPPRSSKITANLDVNMIFIITGAVLVPTICILCVVTYICRQKQKAKKETVKMTMALSGCEDSEPLRPSNIGANLCKLRIVKDAELRKGGVLGMGAFGRVYKGVWVPEGENVKIPVAIKELLKSTGAESSEEFLREAYIMASEEHVNLLKLLAVCMSSQMMLITQLMPLGCLLDYVRNNRDKIGSKALLNWSTQIAKGMSYLEEKRLVHRDLAARNVLVQTPSLVKITDFGLAKLLSSDSNEYKAAGGKMPIKWLALECIRNRVFTSKSDVWAFGVTIWELLTFGQRPHENIPAKDIPDLIEVGLKLEQPEICSLDIYCTLLSCWHLDAAMRPTFKQLTTVFAEFARDPGRYLAIPGDKFTRLPAYTSQDEKDLIRKLAPTTDGSEAIAKPDDYLQPKAAPGPSHRTDCTDEMPKLNRYCKDPSNKNSSTGDDERDSSAREVGVGNLRLDLPVDEDDYLMPTCQPGPNNNNNMNNPNQNNMAAVGVAAGYMDLIGVPVSVDNPEYLLNAQTLGVGESPIPTQTIGIPVMGGPGTMEVKVPMPGSEPTSSDHEYYNDTQRELQPLHRNRNTETRV
partner: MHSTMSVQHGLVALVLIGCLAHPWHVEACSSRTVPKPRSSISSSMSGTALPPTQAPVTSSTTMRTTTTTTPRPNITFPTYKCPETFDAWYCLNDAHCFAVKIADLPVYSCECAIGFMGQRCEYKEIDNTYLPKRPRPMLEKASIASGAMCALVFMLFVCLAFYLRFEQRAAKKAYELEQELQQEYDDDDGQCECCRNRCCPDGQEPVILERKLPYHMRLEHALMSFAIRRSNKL

The variants in this experiment derive from B1. The conditions noted are these: with spitz_drome spi.
Take Y341E;N342A;T344D;Y346E;V347A;L348D: the “effect of a mutation on the interaction” value was “decreasing interaction”.
